Test results published in article PMC5148741 (Journal of the American Chemical Society, 2016).
Where a chain is given by its changes, count along the chain named. Ends that are not written are not given here. * marks the point of attachment. FITC = O=C1OC2(c3ccc(O)cc3Oc3cc(O)ccc32)c2ccc(NC(=S)*)cc21

B1: TbtA L(−32)A (peptide)
chain: MDANDLPMDVFELADSGVAVESLTAGHGMTEVGASCNCFCYICCSCSSA
B2: TbtA N(−31)A (peptide)
chain: B1 chain with A3L, N4A
B3: TbtA D(−30)A (peptide)
chain: B1 chain with A3L, D5A
B4: TbtA L(−29)A (peptide)
chain: B1 chain with A3L, L6A
B5: TbtA D(−26)A (peptide)
chain: B1 chain with A3L, D9A
B6: TbtA V(−25)A (peptide)
chain: B1 chain with A3L, V10A
B7: TbtA F(−24)A (peptide)
chain: B1 chain with A3L, F11A
B8: TbtA E(−23)A (peptide)
chain: B1 chain with A3L, E12A
B9: TbtA D(−20)A (peptide)
chain: B1 chain with A3L, D15A
B10: TbtA S(−19)A (peptide)
chain: B1 chain with A3L, S16A
B11: TbtA V(−17)A (peptide)
chain: B1 chain with A3L, V18A
B12: TbtA V(−15)A (peptide)
chain: B1 chain with A3L, V20A
B13: TbtA E(−14)A (peptide)
chain: B1 chain with A3L, E21A
B14: TbtA S(−13)A (peptide)
chain: B1 chain with A3L, S22A
B15: TbtA L(−12)A (peptide)
chain: B1 chain with A3L, L23A
B16: TbtA T(−11)A (peptide)
chain: B1 chain with A3L, T24A
B17: TbtA H(−8)A (peptide)
chain: B1 chain with A3L, H27A
B18: TbtA M(−6)A (peptide)
chain: B1 chain with A3L, M29A
B19: TbtA E(−4)A (peptide)
chain: B1 chain with A3L, E31A
B20: TbtA wild-type (peptide)
chain: B1 chain with A3L
B21: TbtA V(−3)A (peptide)
chain: B1 chain with A3L, V32A
B22: TbtA D(−33)A (peptide)
chain: B1 chain with D2A, A3L
B23: synthetic TbtA leader peptide derivatized with fluorescein isothiocyanate (FITC) at the N-terminus (peptide)
chain: {FITC}-MDLNDLPMDVFELADSGVAVESLTAGHGMTEVGA

molecular target: MBP-TbtD; assay: fluorescence polarisation

Row | Binder | IC50 [nM]
1 | B1 | 1710 ± 470
2 | B2 | 1130 ± 80
3 | B3 | 7280 ± 770
4 | B4 | > 10000
5 | B5 | 6000 ± 410
6 | B6 | 2250 ± 200
7 | B7 | 1510 ± 90
8 | B8 | 3460 ± 570
9 | B9 | 4130 ± 1620
10 | B10 | 910 ± 110
11 | B11 | 690 ± 40
12 | B12 | 1060 ± 60
13 | B13 | 4470 ± 960
14 | B14 | 2760 ± 180
15 | B15 | 3290 ± 680
16 | B16 | 450 ± 20
17 | B17 | 3680 ± 310
18 | B18 | 490 ± 70
19 | B19 | 700 ± 20
20 | B20 | 610 ± 30
21 | B21 | 1350 ± 140
22 | B22 | 720 ± 70

molecular target: TbtF; assay: fluorescence polarisation

Row | Binder | IC50 [nM]
23 | B1 | 1580 ± 360
24 | B2 | 570 ± 70
25 | B3 | 940 ± 200
26 | B4 | > 10000
27 | B5 | 8230 ± 1450
28 | B6 | 620 ± 40
29 | B7 | > 10000
30 | B8 | 1270 ± 150
31 | B9 | 1450 ± 460
32 | B10 | 1570 ± 460
33 | B11 | 490 ± 50
34 | B12 | 630 ± 60
35 | B13 | 1370 ± 150
36 | B14 | 1410 ± 70
37 | B15 | 700 ± 40
38 | B16 | 510 ± 60
39 | B17 | 980 ± 60
40 | B18 | 450 ± 30
41 | B19 | 530 ± 30
42 | B20 | 670 ± 30
43 | B21 | 580 ± 50
44 | B22 | 990 ± 220

molecular target: MBP-TbtD; assay: fluorescence polarisation; remark: another data set of the same source

Row | Binder | Kd [nM]
45 | B23 | ~140

molecular target: maltose-binding protein (MBP) tagged TbtB; assay: fluorescence polarisation

Row | Binder | Kd [nM]
46 | B23 | ~20000
